What was measured:
luciferase activity = test: Doxycycline-dependent regulation of luciferase in HeLa cells, transient transfection of rtTA2-34R^S or rtTA2; type: cell-based
Text: The synthetic gene encoding rtTA2-34R^S was cloned into pUHD15-1 and expression was examined in HeLa cells.

tetO DNA = test: DNA retardation experiment with radioactively labeled tetO DNA; type: binding; conditions: produced in HeLa cells; compared with rtTA2
Text: Cellular material from cells transfected as described above was also used to compare the binding of rtTA2-34R and rtTA2 (rtTA fused to 3 minimal activation domains) to operator DNA in DNA retardation experiments.
rtTA2 and rtTA2-34R^S were produced in HeLa cells and exposed to radioactively labeled tetO DNA in presence (+) and absence (−) of Dox.

B1: rtTA2-34R^S: first 206 amino acids of rtTA-34R fused to 3 minimal VP-16 activation domains (FFF), synthetic gene with human codon frequencies, SEQ ID NO: 5 (protein)
chain: MSRLDKSKVINSALELLNGVGIEGLTTRKLAQKLGVEQPTLYWHVKNKRALLDALPIEMLDRHHTHFCPLEGESWQDFLRNNAKSFRCALLSHRDGAKVHLGTRPTEKQYETLENQLAFLCQQGFSLENALYALSAVGHFTLGCVLEEQEHQVAKEERETPTTDSMPPLLRQAIELFDRQGAEPAFLFGLELIICGLEKQLKCESGGPADALDDFDLDMLPADALDDFDLDMLPADALDDFDLDMLPG
Q: Which “induction in cells treated with Dox” value (luciferase activity) does the source give for B1 here?
A: The value was “up to 20 fold”.

Q: And the “luciferase activity in relative light units, + Dox” value (luciferase activity; + Dox)?
A: Its value is 20.325.

Q: What about the “luciferase activity in relative light units, − Dox” value (luciferase activity; − Dox) of the same molecule?
A: The value was 1.

Q: What about the “residual binding to operator DNA (binding in the absence of Dox)” value (tetO DNA) of the same molecule?
A: Its value is “greatly reduced”.

— patent US7541446B2, “Tet repressor-based transcriptional regulatory proteins” (Tet Systems Holding GmbH & Co. KG, priority 1999, dated 2009)
